± gives the uncertainty stated by the source.
Assay: self-splicing fitness, log relative to wild type (ln ratio); higher = more splicing; Tetrahymena group I intron in knt gene, E. coli kanamycin selection, DiMSum; sequences stand for … in CUCUCU…GGAGGGAAAAGUUAUCAGGCAUGCACCUGGUAGCUAGUCUUUAAACCAAUAGAUUGCAUCGGUUUAAAAGGCAAGACCGUCAAAUUGCGGGAAAGGGGUCAACAGCCGUUCAGUACCAAGUCUCAGGGGAAACUUUGAGAUGGCCUUGCAAAGGGUAUGGUAAUAAGCUGACGGACAUGGUCCUAACCACGCAGCCAAGUCCUAAGUCAACAGAUCUUCUGUUGAUAUGGAUGCAGUUCACAGACUAAAUGUCGGUCGGGGAAGAUGUAUUCUUCUCAUAAGAUAUAGUCGGACCUCUCCUUAAUGGGAGCUAGCGGAUGAAGUGAUGCAACACUGGAGCCGCUGGGAACUAAUUUGUAUGCGAAAGUAUAUUGAUUAGUUUUGGAGUACUCGUGGUCG
Summary of the method: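 Pooled colonies went to amplicon sequencing on an Illumina HiSeq 2500 after six replicate transformations. The plates were LB agar with 100 μg/mL carbenicillin, 50 μM IPTG and 0.2% rhamnose, with or without 25 μg/mL kanamycin, incubated overnight at 37°C or 30°C. The E. coli BL21(DE3) library had all eight P1ex-region intron nucleotides randomised, the intron placed in the knt kanamycin-resistance gene on pET-22b(+). DiMSum fitness is the error-weighted combination of replicate fold changes, kanamycin against none, normalised to wild type.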

| Sequence | self-splicing fitness (ln) (30 °C) | self-splicing fitness (ln) (37 °C) |
| --- | --- | --- |
| GUUGAGCAAUAUUACGCCGC | -3.06 ± 0.44 | -2.15 ± 0.5 |
| GCUGAGCAAUAUUACGACGG | -1.27 ± 0.17 | -0.245 ± 0.27 |
| AGGCAGCAAUAUUACGUUGG | -3.79 ± 0.2 | -1.45 ± 0.11 |
| CGUCAGCAAUAUUACGCGGG | -3.87 ± 0.24 | -2.94 ± 0.21 |
| CAGUAGCAAUAUUACGGCAC | -2.42 ± 0.21 | -2.06 ± 0.25 |
| GGGAAGCAAUAUUACGUCAU | -1.42 ± 0.11 | -0.7 ± 0.13 |
| UGGAAGCAAUAUUACGACUG | -1.26 ± 0.24 | -0.683 ± 0.24 |
| ACUCAGCAAUAUUACGGACG | -0.251 ± 0.069 | -0.156 ± 0.09 |
| UUCUAGCAAUAUUACGCGAC | -1.97 ± 0.38 |  |
| ACACAGCAAUAUUACGUCGC | -4.02 ± 0.21 | -2.56 ± 0.17 |
| GAAGAGCAAUAUUACGUGUC | -4.75 ± 0.46 | -2.79 ± 0.27 |
| AUUUAGCAAUAUUACGUCGC | -3.64 ± 0.26 | -2.2 ± 0.21 |
| ACAAAGCAAUAUUACGCGGA | -1.7 ± 0.078 | -0.866 ± 0.072 |
| CCCUAGCAAUAUUACGCGUG | -5.09 ± 0.41 | -1.06 ± 0.13 |
| GACUAGCAAUAUUACGUUCA | -0.661 ± 0.11 | -0.533 ± 0.12 |
| GAGCAGCAAUAUUACGUCGU | -1.35 ± 0.13 | -2.39 ± 0.2 |
| GGCUAGCAAUAUUACGGCGG | -1.32 ± 0.13 | -0.684 ± 0.19 |
| CUAGAGCAAUAUUACGCUAA | -3 ± 0.23 | -2.49 ± 0.25 |
| GGUGAGCAAUAUUACGCAGG | -3.7 ± 0.34 | -2.07 ± 0.41 |
| ACACAGCAAUAUUACGUAGU | -2.48 ± 0.077 | -1.71 ± 0.088 |

| Sequence | self-splicing fitness (ln) (30 °C) | self-splicing fitness (ln) (37 °C) |
| --- | --- | --- |
| UAUGAGCAAUAUUACGAACC | -2.34 ± 0.4 |  |
| UCGAAGCAAUAUUACGCUAG | -2.16 ± 0.14 | -0.234 ± 0.14 |
| GACCAGCAAUAUUACGGACU | -1.55 ± 0.082 | -0.595 ± 0.1 |
| GAGCAGCAAUAUUACGAGAG |  | -2.19 ± 0.28 |
| UACUAGCAAUAUUACGAGGA | -3.18 ± 0.2 | -1.54 ± 0.13 |
| ACUGAGCAAUAUUACGCCUA | -2.23 ± 0.17 | -1.42 ± 0.18 |
| UGGUAGCAAUAUUACGCGCA | -0.453 ± 0.1 | 0.351 ± 0.11 |
| UAAGAGCAAUAUUACGUCGU | -4.06 ± 0.31 | -3.11 ± 0.43 |
| AGCAAGCAAUAUUACGGUGA | -1.88 ± 0.11 | -0.835 ± 0.093 |
| UACAAGCAAUAUUACGUUUG | -3.72 ± 0.13 | -2.57 ± 0.15 |
| CGACAGCAAUAUUACGACCA | -0.898 ± 0.1 | -0.397 ± 0.12 |
| AUCCAGCAAUAUUACGAACA | -0.801 ± 0.087 | -0.748 ± 0.11 |
| UUUUAGCAAUAUUACGAUAG | -0.792 ± 0.26 | -0.639 ± 0.46 |
| GCCCAGCAAUAUUACGCCGA | -1.86 ± 0.13 | -1.2 ± 0.12 |
| CGCAAGCAAUAUUACGCGGA | -2.93 ± 0.28 | -2.41 ± 0.23 |
| GAAUAGCAAUAUUACGAAAA | -1.52 ± 0.22 | -1.02 ± 0.2 |
| AGCUAGCAAUAUUACGAAUG | -2.09 ± 0.17 | -2.27 ± 0.29 |
| UACAAGCAAUAUUACGGAUG | -1.16 ± 0.078 | -0.694 ± 0.11 |
| UUUAAGCAAUAUUACGAGUC |  | -2.65 ± 0.48 |

Reference: the supplement of paper PMC7877785
